For 2 substances, percent decrease of ELISA-detectable sFlt-1 when VEGF was co-expressed, percent decrease of free sFlt-1 in plasma of co-treated mice and Kd results are on record in publication PMC3829045.

In one assay the target is mouse sFlt-1-Fc (mouse) (UniProt P35969). Description: ELISA.
The target in the next assay is VEGFR-2 (Homo sapiens) (UniProt P35968). Conditions: cited from earlier work.
UniProt P35968, sequence (P35968 20-1356): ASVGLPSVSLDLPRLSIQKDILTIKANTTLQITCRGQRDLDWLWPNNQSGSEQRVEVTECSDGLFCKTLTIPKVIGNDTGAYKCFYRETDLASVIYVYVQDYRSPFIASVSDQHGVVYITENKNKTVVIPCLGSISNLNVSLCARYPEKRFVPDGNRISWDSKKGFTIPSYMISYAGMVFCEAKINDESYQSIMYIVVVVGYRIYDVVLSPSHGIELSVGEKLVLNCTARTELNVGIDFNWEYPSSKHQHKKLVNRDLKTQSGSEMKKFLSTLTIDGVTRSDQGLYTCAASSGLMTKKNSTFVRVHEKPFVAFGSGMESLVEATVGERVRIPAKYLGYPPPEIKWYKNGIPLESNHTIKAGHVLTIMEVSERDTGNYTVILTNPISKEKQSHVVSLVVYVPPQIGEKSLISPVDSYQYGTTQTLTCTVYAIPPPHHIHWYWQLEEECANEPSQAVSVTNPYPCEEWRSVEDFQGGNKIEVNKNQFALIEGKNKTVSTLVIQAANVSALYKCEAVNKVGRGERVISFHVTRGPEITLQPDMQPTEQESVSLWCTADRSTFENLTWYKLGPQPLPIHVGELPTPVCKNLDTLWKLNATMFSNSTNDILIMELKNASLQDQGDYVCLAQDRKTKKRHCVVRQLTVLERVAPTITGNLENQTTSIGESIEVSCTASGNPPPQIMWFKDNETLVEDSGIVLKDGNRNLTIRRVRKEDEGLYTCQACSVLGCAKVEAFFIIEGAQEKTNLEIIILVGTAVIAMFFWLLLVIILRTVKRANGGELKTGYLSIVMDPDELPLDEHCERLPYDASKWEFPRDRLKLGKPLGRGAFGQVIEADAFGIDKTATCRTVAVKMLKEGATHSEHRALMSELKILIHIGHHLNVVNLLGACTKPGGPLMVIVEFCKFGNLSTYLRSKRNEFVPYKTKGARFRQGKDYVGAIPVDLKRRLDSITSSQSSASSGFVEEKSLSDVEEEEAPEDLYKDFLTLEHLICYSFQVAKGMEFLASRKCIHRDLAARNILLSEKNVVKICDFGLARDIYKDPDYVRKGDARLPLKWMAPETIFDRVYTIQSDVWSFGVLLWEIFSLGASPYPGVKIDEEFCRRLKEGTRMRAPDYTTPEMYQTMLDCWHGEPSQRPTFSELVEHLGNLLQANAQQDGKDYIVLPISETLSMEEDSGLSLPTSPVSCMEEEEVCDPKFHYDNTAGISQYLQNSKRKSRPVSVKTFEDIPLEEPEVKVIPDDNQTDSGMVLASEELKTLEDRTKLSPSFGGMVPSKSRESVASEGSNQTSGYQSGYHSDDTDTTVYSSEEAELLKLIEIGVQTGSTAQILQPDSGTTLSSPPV

UniProt P35969, sequence (P35969 23-758): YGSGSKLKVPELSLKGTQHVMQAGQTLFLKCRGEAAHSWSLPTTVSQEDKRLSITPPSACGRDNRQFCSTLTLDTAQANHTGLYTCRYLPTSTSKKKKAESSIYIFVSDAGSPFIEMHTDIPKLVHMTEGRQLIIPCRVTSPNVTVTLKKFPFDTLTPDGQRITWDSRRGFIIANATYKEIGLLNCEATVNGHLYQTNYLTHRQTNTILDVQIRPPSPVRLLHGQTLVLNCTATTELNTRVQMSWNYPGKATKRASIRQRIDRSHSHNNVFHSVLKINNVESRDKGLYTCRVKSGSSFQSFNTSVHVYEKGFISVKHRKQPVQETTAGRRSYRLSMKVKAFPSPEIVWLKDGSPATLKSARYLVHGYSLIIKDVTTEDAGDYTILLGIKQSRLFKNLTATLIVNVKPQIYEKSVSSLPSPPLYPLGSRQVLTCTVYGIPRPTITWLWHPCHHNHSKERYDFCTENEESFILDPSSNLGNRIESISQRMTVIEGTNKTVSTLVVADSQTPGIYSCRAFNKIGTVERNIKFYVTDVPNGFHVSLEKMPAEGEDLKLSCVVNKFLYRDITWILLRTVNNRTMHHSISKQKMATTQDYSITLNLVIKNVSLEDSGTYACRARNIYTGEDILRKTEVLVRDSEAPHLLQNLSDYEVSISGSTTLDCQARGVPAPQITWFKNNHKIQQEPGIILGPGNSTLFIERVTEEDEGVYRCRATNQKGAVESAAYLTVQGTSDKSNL

Consider VEGF165 (ligand), for which, in the assay with mouse sFlt-1-Fc (mouse), the percent decrease of ELISA-detectable sFlt-1 when VEGF was co-expressed was 70 to 80% and the percent decrease of free sFlt-1 in plasma of co-treated mice was above 70%. Consider VEGF (from UniProt P15692), for which the Kd with VEGFR-2 (Homo sapiens) is 0.76 nM.

What is called Kd is the equilibrium constant for the complex coming apart.
